Where “and” joins values, the source holds several entries; their conditions need not be identical. Identical values can stand only once. One block for each molecule: values may come before it.
What was measured:
Vγ9Vδ2 cells = experiment: Luminex (Vγ9Vδ2): cytokine/chemokine secretion by pre-expanded Vγ9Vδ2 cells; type: cell-based, human; details: for GMCSF / ICAM-1 / IFNγ / IL-4 / IL-8 / IL-13 / IL-17A / MIP-1a / MIP-1b / TNFα / sE-selectin / sP-Selectin: 16 hrs, antibodies 10 μg/ml, Zoledronic acid 4 μM, HMBPP 0.5 ng/ml, duplicates, 0 set to 0.1; for cytokine/chemokine secretion, in words: vs isotype (BM4);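 for all read-outs here: Vγ9Vδ2 cells purified from PBMC, activated 48 h with CD3 and CD28 plus IL-2, expanded 14 days in IL-2, then thawed and rested overnight in IL-2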
Procedure: Briefly, Vγ9Vδ2 cells were isolated from 1 healthy donor (Red Cross Australia) and 1 cancer patient derived PBMC using TCRγ/δ+ T Cell Isolation Kit (Miltenyi). Cells were stimulated for 48 hours in TCRPMI supplemented with 100u/ml IL-2, CD3 (10 μg/ml) and CD28 (1 μg/ml). Cells were washed and grown for 14 days in TCRPMI supplemented with 100u/ml IL-2 at 37 degrees C. and 5% CO2, and then frozen down. […] Vγ9Vδ2 were defrosted and rested overnight in TCRPMI supplemented with 50u/ml IL-2 at 37 degrees C. and 5% CO2. […] All samples were run with appropriate controls and standards.

BTN2A1 B30.2 domain = BTN2A1 B30.2 domain (Homo sapiens, UniProt Q7KYR7); details: ITC, 25° C., B30.2 domain 100 μM, pAg 2 mM
Sequence of BTN2A1 B30.2 domain (Q7KYR7 310-506 limits assumed): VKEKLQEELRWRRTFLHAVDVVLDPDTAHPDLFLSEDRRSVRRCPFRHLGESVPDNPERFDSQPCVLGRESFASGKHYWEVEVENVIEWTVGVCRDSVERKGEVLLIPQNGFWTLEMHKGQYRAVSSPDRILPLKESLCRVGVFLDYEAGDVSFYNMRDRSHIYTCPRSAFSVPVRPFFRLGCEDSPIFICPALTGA
Procedure: ITC experiments were conducted on a MicroCal ITC200 instrument (GE Healthcare) at 25° C. […] Data were analysed with Microcal Origin software.

Vγ9^+ T cells = details: cited from earlier work
[1] = target: 'hybrid' Vγ9+Vδ1+ γδTCR (TCR #6 γ-chain paired with an irrelevant Vδ1+ chain), soluble ectodomain (human); experiment: SPR, γδTCR ectodomain immobilized on streptavidin chip, soluble BTN2A1 200-3.1 µM, KD derived at equilibrium
Sequence of 'hybrid' Vγ9+Vδ1+ γδTCR (TCR #6 γ-chain paired with an irrelevant Vδ1+ chain), soluble ectodomain (human) (TCR gamma, as listed by the source): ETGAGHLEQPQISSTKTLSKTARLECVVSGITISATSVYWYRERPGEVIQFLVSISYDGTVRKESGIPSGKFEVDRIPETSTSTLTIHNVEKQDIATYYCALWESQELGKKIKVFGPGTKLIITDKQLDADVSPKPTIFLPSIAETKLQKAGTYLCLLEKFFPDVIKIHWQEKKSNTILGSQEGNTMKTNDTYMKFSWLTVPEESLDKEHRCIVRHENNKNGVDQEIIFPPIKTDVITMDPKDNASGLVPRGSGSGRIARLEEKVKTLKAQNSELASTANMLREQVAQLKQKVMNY

[2] = target: 'hybrid' Vγ9+Vδ1+ γδTCR (TCR #6 γ-chain paired with an irrelevant Vδ1+ chain), soluble ectodomain (human); experiment: surface plasmon resonance, binding at equilibrium (saturation plot with Scatchard inset, Expt. 1 and Expt. 2), soluble BTN2A1 200-3.1 µM over immobilized hybrid TCR
human BTN2A2, isoform 1 = target: T1, human BTN2A2, isoform 1 (human, UniProt Q8WVV5 33-523); experiment: told in the legend of FIG. 24; data in FIG. 11 (ELISA, transfected cells)
T1 construct: whole, on cells
T1 sequence (looked up): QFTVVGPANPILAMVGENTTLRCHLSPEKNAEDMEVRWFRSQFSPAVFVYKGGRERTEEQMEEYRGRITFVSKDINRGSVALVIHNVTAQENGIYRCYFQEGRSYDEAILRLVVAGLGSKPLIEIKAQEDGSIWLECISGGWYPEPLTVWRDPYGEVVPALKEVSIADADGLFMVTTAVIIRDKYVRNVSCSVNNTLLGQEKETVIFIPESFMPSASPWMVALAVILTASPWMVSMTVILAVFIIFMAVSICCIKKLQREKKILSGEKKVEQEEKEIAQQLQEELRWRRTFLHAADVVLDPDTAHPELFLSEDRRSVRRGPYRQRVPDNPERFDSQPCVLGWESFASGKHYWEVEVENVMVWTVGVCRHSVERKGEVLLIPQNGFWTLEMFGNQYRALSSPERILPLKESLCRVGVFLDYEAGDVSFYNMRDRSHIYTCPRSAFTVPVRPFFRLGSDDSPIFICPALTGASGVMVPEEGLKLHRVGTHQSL
Procedure: Purified recombinant proteins (0.2-20 μg/ml) were immobilized in microplate wells in PBS buffer overnight at 4° C. Non-specific binding was then blocked by incubation in PBS containing 0.05% tween 20 plus 5% skim milk powder or 0.5% (w/v) bovine serum albumin (BSA). The wells were then incubated for 60 minutes at room temperature in the presence of antibodies at 2-5 μg/mL in PBS/0.05% tween-20/2% skim milk powder or 0.5% BSA, followed by washing in PBS/0.05% tween-20. Plates were then incubated with HRP-labelled sheep anti-mouse IgG secondary antibody (Chemicon), or goat anti-mouse IgG secondary antibody (Millipore) followed by detection using 3,3′,5,5′-tetramethylbenzidine substrate (Sigma) and absorbance was measured at 450 nm using a plate reader.

[3] = target: T2, human BTN3A1, isoform 1, on cells (human, UniProt O00481 30-513); experiment: FRET between C-terminal CFP/YFP tags on co-transfected NIH-3T3 cells, flow cytometry (FIG. 5D, FIG. 20A)
T2 construct: whole, on cells
T2 sequence (O00481 30-513 limits assumed): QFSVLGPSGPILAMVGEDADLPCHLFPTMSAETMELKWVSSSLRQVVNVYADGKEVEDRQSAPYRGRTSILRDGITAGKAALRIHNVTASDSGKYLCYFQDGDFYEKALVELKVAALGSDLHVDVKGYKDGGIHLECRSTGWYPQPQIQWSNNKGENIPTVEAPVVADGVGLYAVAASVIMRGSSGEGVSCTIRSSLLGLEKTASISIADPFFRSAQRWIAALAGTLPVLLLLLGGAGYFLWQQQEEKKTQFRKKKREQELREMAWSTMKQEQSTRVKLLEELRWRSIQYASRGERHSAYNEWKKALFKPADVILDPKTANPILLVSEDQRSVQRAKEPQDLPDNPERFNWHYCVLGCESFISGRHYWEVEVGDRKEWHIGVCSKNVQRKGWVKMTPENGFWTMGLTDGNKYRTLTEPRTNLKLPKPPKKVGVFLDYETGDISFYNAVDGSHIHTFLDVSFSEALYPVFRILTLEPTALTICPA

[4] = system: Vδ2^+ γδ T cells among PBMCs; experiment: γδ T cell functional assay: PBMC ± zoledronate ± anti-BTN2A1 mAb; type: cell-based, human; details: PBMCs 24 h, 4 μM zoledronate, 10 μg/ml anti-BTN2A1 mAb, compared to isotype control mAb
Procedure: Fresh PBMC (2×10^6) were cultured in 24 well plates ±zoledronate (4 μM, Sigma) and purified mAb against BTN2A1, BTN3A1, or isotype control IgG1κ (MOPC-21, BioLegend) (10 μg/ml) After 24 h CD3ε^+ γδTCR^+ Vδ2^+/− γδ T cell activation was assessed by flow cytometry and cytokine production was determined by cytometric bead array according to manufacturer instructions (BD). For the assays in FIG. 14, PBMC were cultured in 24 well plates and blocked for 30 min with mAb against BTN2A1, BTN3A1, or isotype control (10 μg/ml). […] Cells were surface-stained and then fixed and permeabilized using Foxp3/Transcription Factor Staining Buffer Set (Invitrogen) according to the manufacturer's protocol followed by staining with anti-IFN-γ (Biolegend). For co-culture assays, purified and in vitro-expanded γδ T cells (5×10^5) were incubated in 96 well plates with APCs (3×10^5) for 24 h ±zoledronate (4 μM), and γδ T cell activation was determined by flow cytometry as above.

[5] = system: in vitro pre-expanded CD3+Vδ2+ γδ T cells; experiment: HMBPP or anti-CD3/anti-CD28 activation of purified in vitro-expanded Vδ2+ T cells ± neutralizing anti-BTN2A1 mAb; type: cell-based, human; details: HMBPP 0.5 ng/ml, 10 μg/ml neutralizing anti-BTN2A1 mAb, no APCs
Procedure: CD25 expression was determined by flow cytometry, and IFN-γ concentration was determined by cytometric bead array (BD Bioscience) as per manufacturer instructions.

[6] = γδT cells from patient 1 (melanoma patient)

Molecule: CC(=CCOP(=O)(O)OP(=O)(O)O)CO [HMBPP, 4-hydroxy-3-methyl-but-2-enyl pyrophosphate, reference compound]
GMCSF (Vγ9Vδ2 cells; γδT cells from a healthy donor): 2375.52 pg/mL and 2349.07 pg/mL
ICAM-1 (Vγ9Vδ2 cells; γδT cells from a healthy donor): 575.02 pg/mL and 570.14 pg/mL
IFNγ (Vγ9Vδ2 cells; γδT cells from a healthy donor): 751.87 pg/mL and 798.38 pg/mL
IL-4 (Vγ9Vδ2 cells; γδT cells from a healthy donor): 137.56 pg/mL and 117.91 pg/mL
IL-8 (Vγ9Vδ2 cells; γδT cells from a healthy donor): 0.1 pg/mL
IL-13 (Vγ9Vδ2 cells; γδT cells from a healthy donor): 84.37 pg/mL and 87.99 pg/mL
IL-17A (Vγ9Vδ2 cells; γδT cells from a healthy donor): 8.39 pg/mL and 9.97 pg/mL
MIP-1a (Vγ9Vδ2 cells; γδT cells from a healthy donor): 395.47 pg/mL and 392.74 pg/mL
MIP-1b (Vγ9Vδ2 cells; γδT cells from a healthy donor): 19239.36 pg/mL and 20123.08 pg/mL
TNFα (Vγ9Vδ2 cells; γδT cells from a healthy donor): 2186.67 pg/mL and 2148.53 pg/mL
sE-selectin (Vγ9Vδ2 cells; γδT cells from a healthy donor): 387.87 pg/mL and 373.47 pg/mL
sP-Selectin (Vγ9Vδ2 cells; γδT cells from a healthy donor): 3183.34 pg/mL and 3082.95 pg/mL
GMCSF (Vγ9Vδ2 cells; [6]): 2172.54 pg/mL and 2625.54 pg/mL
ICAM-1 (Vγ9Vδ2 cells; [6]): 729.5 pg/mL and 885.22 pg/mL
IFNγ (Vγ9Vδ2 cells; [6]): 723.16 pg/mL and 791.56 pg/mL
IL-4 (Vγ9Vδ2 cells; [6]): 875.51 pg/mL and 1027.45 pg/mL
IL-13 (Vγ9Vδ2 cells; [6]): 478.3 pg/mL and 602.86 pg/mL
IL-17A (Vγ9Vδ2 cells; [6]): 9.23 pg/mL and 10.85 pg/mL
MIP-1a (Vγ9Vδ2 cells; [6]): 321.54 pg/mL and 383.73 pg/mL
MIP-1b (Vγ9Vδ2 cells; [6]): 9453.77 pg/mL and 12721.52 pg/mL
TNFα (Vγ9Vδ2 cells; [6]): 2973.1 pg/mL and 3657.48 pg/mL
sE-selectin (Vγ9Vδ2 cells; [6]): 373.32 pg/mL and 372.16 pg/mL
sP-Selectin (Vγ9Vδ2 cells; [6]): 2542.23 pg/mL and 2775.99 pg/mL
binding of pAg to BTN2A1 B30.2 domain (BTN2A1 B30.2 domain): no clear interaction
sensitivity for HMBPP relative to IPP (Vγ9^+ T cells): ~1000 fold

Kd [1]: 50 µM
Kd [2]: 50.4 µM
Molecule: soluble BTN2A1 ectodomain (IgV and IgC domains; Gln29 to Ser245) with C-terminal linker, Avi-tag and His6-tag (ligand)

binding result (human BTN2A2, isoform 1): no binding
B1: anti-BTN2A1 antibody 259 (antibody, V domains shown)
VH: EVQLLESGGGLVQPGGSLRLSCAASGFTFSSYAMQWVRQAPGKGLEWVSRIGPSGGGTMYADSVKGRFTISRDNSKNTLYLQMNSLRAEDMAVYYCARDLGGLSVLFDYWGQGTLVTVSS
VL: QSELTQPPSASETPGQRVTISCSGSSSNIGSNTVSWFQQLPGSAPRLLIYNDHRRPSGVPDRFSGSKSGTSASLVISGLQSQDEADYYCSAWDDSLNGVVFGGGTKLTVL

binding result [3]: no binding
B2: human BTNL8, isoform 1, on cells (ligand, UniProt Q6UX41 18-500, looked up)
chain: QWQVFGPDKPVQALVGEDAAFSCFLSPKTNAEAMEVRFFRGQFSSVVHLYRDGKDQPFMQMPQYQGRTKLVKDSIAEGRISLRLENITVLDAGLYGCRISSQSYYQKAIWELQVSALGSVPLISITGYVDRDIQLLCQSSGWFPRPTAKWKGPQGQDLSTDSRTNRDMHGLFDVEISLTVQENAGSISCSMRHAHLSREVESRVQIGDTFFEPISWHLATKVLGILCCGLFFGIVGLKIFFSKFQWKIQAELDWRRKHGQAELRDARKHAVEVTLDPETAHPKLCVSDLKTVTHRKAPQEVPHSEKRFTRKSVVASQSFQAGKHYWEVDGGHNKRWRVGVCRDDVDRRKEYVTLSPDHGYWVLRLNGEHLYFTLNPRFISVFPRTPPTKIGVFLDYECGTISFFNINDQSLIYTLTCRFEGLLRPYIEYPSYNEQNGTPIVICPVTQESEKEASWQRASAIPETSNSESSSQATTPFLPRGEM
notes: whole, on cells; also called B7NL8

B3: Hu34C1: antagonist anti-BTN2A1 mAb; VH SEQ ID NO: 100, VL SEQ ID NO: 101; human IgG4 Fab, murine IgG2a Fc (antibody, V domains shown)
VH: EVQLLESGGGLVQPGGSLRLSCAASGFTFSHYPMIWVRQAPGKGLEWVSSISSSGGSTHYADSVKGRFTISRDNSKNTLYLQMNSLRAEDTAMYYCAALVSDTDFWGQGTLVTVSS
VL: DIQMTQSPATLSVSPGESTTLSCRASQSVTSNLAWYQQKPGQAPSLLIYGASTRATGIPARFSGSGSGTEFTLTISSLQSEDSAVYYCQQYNNWPRTFGQGTKVEIK
modifications: human IgG4 Fab, murine IgG2a Fc constant regions; amino acid sequence of Hu34C VH; amino acid sequence of Hu34C VL
cytokine/chemokine secretion, in words (Vγ9Vδ2 cells; cancer patient derived Vγ9Vδ2 cells): reduction in levels of GMCSF, ICAM1 (to undetectable levels), IFNγ, IL-13, MIP1α and MIP1β as well as sE-selectin
cytokine/chemokine secretion, in words (Vγ9Vδ2 cells; healthy donor derived Vγ9Vδ2 cells): downregulation of MIP1α and b as well as GMCSF
ICAM-1 (Vγ9Vδ2 cells; γδT cells from a healthy donor): 0.1 pg/mL
IFNγ (Vγ9Vδ2 cells; γδT cells from a healthy donor): 0.1 pg/mL
IL-4 (Vγ9Vδ2 cells; γδT cells from a healthy donor): 0.1 pg/mL
IL-8 (Vγ9Vδ2 cells; γδT cells from a healthy donor): 0.1 pg/mL
IL-13 (Vγ9Vδ2 cells; γδT cells from a healthy donor): 0.1 pg/mL
IL-17A (Vγ9Vδ2 cells; γδT cells from a healthy donor): 0.1 pg/mL
MIP-1a (Vγ9Vδ2 cells; γδT cells from a healthy donor): 9.16 pg/mL and 7.83 pg/mL
MIP-1b (Vγ9Vδ2 cells; γδT cells from a healthy donor): 50.62 pg/mL and 43.18 pg/mL
TNFα (Vγ9Vδ2 cells; γδT cells from a healthy donor): 0.1 pg/mL
sE-selectin (Vγ9Vδ2 cells; γδT cells from a healthy donor): 0.1 pg/mL
sP-Selectin (Vγ9Vδ2 cells; γδT cells from a healthy donor): 0.1 pg/mL
GMCSF (Vγ9Vδ2 cells; [6]): 8.09 pg/mL and 9.22 pg/mL
ICAM-1 (Vγ9Vδ2 cells; [6]): 0.1 pg/mL
IFNγ (Vγ9Vδ2 cells; [6]): 0.1 pg/mL
IL-4 (Vγ9Vδ2 cells; [6]): 0.1 pg/mL
IL-8 (Vγ9Vδ2 cells; [6]): 0.1 pg/mL
IL-13 (Vγ9Vδ2 cells; [6]): 16.14 pg/mL and 14.86 pg/mL
IL-17A (Vγ9Vδ2 cells; [6]): 0.1 pg/mL
MIP-1a (Vγ9Vδ2 cells; [6]): 50.75 pg/mL and 51.38 pg/mL
MIP-1b (Vγ9Vδ2 cells; [6]): 239.49 pg/mL and 252.05 pg/mL
TNFα (Vγ9Vδ2 cells; [6]): 0.1 pg/mL
sP-Selectin (Vγ9Vδ2 cells; [6]): 0.1 pg/mL
indicators of TCR-dependent activation (CD25 induction, CD3 downregulation, IFN-γ and TNF production) [4]: significantly inhibited
HMBPP-induced activation (CD25 upregulation, IFN-γ production) [5]: failed to upregulate CD25 and produce IFN-γ

Reference: US20220273713A1, “METHOD OF INHIBITING OR ACTIVATING GAMMA DELTA T CELLS” (The University of Melbourne, priority 2019, published 2022)
